The data set in a line: label from the status in PepcDB records.

The text below walks through data of a protein production outcome set (Wang et al. 2014).

Turning to “MNNGRRIGLIMIITGATLWGLSGPMIQWLFQHTNVSSIDFLTIRLLLAGIFILSFLLIKKQNIFQIWKHPRYSIQLIIFSILGMLGAQYAFIETVHISNAVTATLFQFLGPVLITMYVAFEQRKFPASMQLFAIIAALIGTYFIITNGSIENIVLSKEAIIFGLLTAIGFAFYTLHPASLIKECGTTVVIGWGMLIGGIALLIYNRSFGWNQFSQTLTLKTFSMLILIIISGTLSFLLYIGSLKYLAATETSILSSIEPLVAAIVSITWLNESFGTYQLLGGVCIVLSVIFLTMPQKETEPTYTTEQI”, the protein production result was “failed”.

Turning to “MNNIILMPILIPFLGAITLMLLPKRVIVQRVFALIFSGILVVATIGLVFYIRENGITTVNIGNWAAPFGITMVGDMLAVLLTATTSIVLFCVILYSFYTIGKPREKFLYYPAILFMIVGVNGSFLTGDIFNMFVFFEVMLMASYVLLVIGGTQVQLKATIKYLLINVVGSGFFVVAIALLYSMIGTLNMADISQKITDLNGANTGMISIVAVLFLFVFGLKAGLFPLYFWLPGSYFAPPIPVLALFGGLLTKVGVYAIIRTYTLFFSSLTDFVVPLLGILAIVTIILGVIGAISYYDMKTIVIYNIMIAIGVILFSVSIMTRESMTGAVFYLIHDMIIKAALFLIVGIVMAITGYSSVKKFSGLMSVKPSLGWIFFIATLGLAGIPPLSGFIGKLLIVEGAFSAGQMVGGIIILLSSLFVLMSLIKVFTKGFWGEKKGVFNLQIPYKKMLVPVVILLAISIGYGVFSNAIYPFIEQAVDPLVDPSVYIHAVIKE”, the protein production entry is on record as “failed”.

Take “MNNPITAVWEITMGCNMRCKHCGSSCENALEGELTTEEALKLCDELGELGFKWITLSGGEPTTRKDWHLIAKRLNENGIIPNMITNGWLMNEEIADKAVEAGINTVAISVDGLEETHDFIRKKGSFQRIMRAFDILRTRNIFYSAITTINNINIKELPRLRDILIEKGVRGWQLQLGLPMGNMAKNNELVAQPYHIDEVIEFSYKTVKEGYNIDVQLADCIGYFNLKEIEVRKNSYGGGRDGYNWTGCGAGKYSLGILHNGDILGCTSVRDRSFIEGNIRQTPIKEIWMNPDSFSWNRKMTKDKLSGLCKKCYFGERCLGGCSNTRLTMEGSVYSENRYCSYNVAISTAREQLDRIEDVDVMLSKAKKFADNGNFQLAEILLSRAIEKGCRDIGVFEFYGYISFMLGNYLDAKKANEEALKINPDSAYANKGMGLSLGRLGELEKGIEYLRKAIALSDENFTDPYYDLAVLLYENGRKEEALEVLEEGRKKYKSFIDTSKDLYDILTNAS”: the protein production result is “failed”.

In the case of “MNNPSETSKPSMESGDGNTGTQTNGLDFQKQPVPVGGAISTAQAQAFLGHLHQVQLAGTSLQAAAQSLNVQSKSNEESGDSQQPSQPSQQPSVQAAIPQTQLMLAGGQITGLTLTPAQQQLLLQQAQAQAQLLAAAVQQHSASQQHSAAGATISASAATPMTQIPLSQPIQIAQDLQQLQQLQQQNLNLQQFVLVHPTTNLQPAQFIISQTPQGQQGLLQAQNLLTQLPQQSQANLLQSQPSITLTSQPATPTRTIAATPIQTLPQSQSTPKRIDTPSLEEPSDLEELEQFAKTFKQRRIKLGFTQGDVGLAMGKLYGNDFSQTTISRFEALNLSFKNMCKLKPLLEKWLNDAENLSSDSSLSSPSALNSPGIEGLSRRRKKRTSIETNIRVALEKSFLENQKPTSEEITMIADQLNMEKEVIRVWFCNRRQKEKRINPPSSGGTSSSPIKAIFPSPTSLVATTPSLVTSSAATTLTVSPVLPLTSAAVTNLSVTGTSDTTSNNTATVISTAPPASSAVTSPSLSPSPSASASTSEASSASETSTTQTTSTPLSSPLGTSQVMVTASGLQTAAAAALQGAAQLPANASLAAMAAAAGLNPSLMAPSQFAAGGALLSLNPGTLSGALSPALMSNSTLATIQALASGGSLPITSLDATGNLVFANAGGAPNIVTAPLFLNPQNLSLLTSNPVSLVSAAAASAGNSAPVASLHATSTSAESIQNSLFTVASASGAASTTTTASKAQ”, the protein production result is given as “failed”.

“MNNRELGRWQEHKHIGDYGWGIILCVIILCCIGMWAVYYACLHDLKVIDPVRTTMMQCLWYLVGALIATTMLHLSEKQLMQWAPIGYSIGMLLLILLLVLYSREYYVQTGAKSWFAIGTLTFQPVEVMKPLYILMMGRLIVQDQQWGPHNNFNADWRLTRRLVIYTFPIIVALKIINDFGTTLVFLTIFIGMLIVSPCRFSFLWRVLLVAGSIGVVLILLATSSTGQSLLSHIGFKLYQFDRINTWLNPSNGVSDQSYQLWQSMRAVGVGGLTGNGVTHNAVYVPVRESDMIFSVVGETTGFIGCSVLLIVYMYLFYLIFRSAFASRRRFYVYVSTGVAVMLAFHMFENIGMTIGLLPLTGIPLPFVSQGGSAIIGDFMGVGLVLATQYPNVRSIFSVPRIFH”: the protein production result was “failed”.

As to “MNNSINHKFHHISRAEYQELLAVSRGDAVADYIIDNVSILDLINGGEISGPIVIKGRYIAGVGAEYADAPALQRIDARGATAVPGFIDAHLHIESSMMTPVTFETATLPRGLTTVICDPHEIVNVMGEAGFAWFARCAEQARQNQYLQVSSCVPALEGCDVNGASFTLEQMLAWRDHPQVTGLAEMMDYPGVISGQNALLDKLDAFRHLTLDGHCPGLGGKELNAYITAGIENCHESYQLEEGRRKLQLGMSLMIREGSAARNLNALAPLINEFNSPQCMLCTDDRNPWEIAHEGHIDALIRRLIEQHNVPLHVAYRVASWSTARHFGLNHLDLLAPGKQADIVLLSDARKVTVQQVLVKGEPIDAQTLQAEESARLAQSAPPYGNTIARQPVSASDFALQFTPGKRYRVIDVIHNELITHSHSSVYSENGFDRDDVCFIAVLERYGQRLAPACGLLGGFGLNEGALAATVSHDSHNIVVIGRSAEEMALAVYQVIQDGGGLCVVRNGQVQSHLPLPIAGLMSTDTAQSLAEQIDALKAAARECGPLPDEPFIQMAFLSLPVIPALKLTSQGLFDGEKFVFTTLEVTE”, the protein production entry is reported as “failed”.

For the sequence “MNNTKTYSKTSIALHWIVGLAFIGVFIIGAYLSDLPRGPEKMELVALHKSFGVLILLIALARVFWRIKEGAIPPASVMPAWQEKVAKAVHGLLLLATLAMPLSGIAMNIGGGRALEVFGYTLVAAGEKVVWLQELGAAVHKTAPPIIIAIVLLHIAAVLKHHLIDKDATMARMLGRG”, the protein production result is given as “failed”.

Turning to “MNNTPKLKLGIVAVSRDCFPMELSENRRKAVVDAYNGEIFECLTTVENEKDMRKALKEVKSAGVNALVVYLGNFGPETPETLIAKEFDGPVMFAAAAEERGDNLVNGRGDAYCGMLNASYNLALRNINAYIPEYPVGTASDVANMINEFVPVATALIGLKNLKIISFGPRPQDFLACNAPIKQLYNLGVEIEENSELDLFASFNEHENDSRIPDVVKDMEEELGEGNKMPGILPKLAQYELTLLDWAEEHKGSREYVVFANKCWPAFQTQFGCVPCYVNSRLTARGIPVSCEVDIYGALSEYIGTCVSQDVVTLLDINNTVPKDMYESEIKSKFNYTLKDTFMGFHCGNTAACKLTSGTMKNQMIMARALEPNQEPNITRGTLEGDIVPGEITFFRLQSNADSELTAYVAEGEVLPVKTRSFGSIGVFAIPQMGRFYRHVLIENRFPHHGAVAFGHFGKAIYNLFRYLGVKEVGFNRPKEMLYKTENPFELEHHHHHH”, the protein production result is recorded as “not failed”.

On to “MNNVFGLDIGTRNVVGTVGYQTDDKEFVVTAQYVREHETRAMLDGQIHDIGRVAKTIKEVKDELEKQTGQPLEEVCIAAAGRVLKTVTTHVEYEYAQESVVTGEDVHTLDLLGIEKAQEALKEVNDTSYKFYCVGYSTVKFFLNDEVFISLEGHKANKIGEDIIVTFLPEDVVDGLYAAVGQAGLSVANMTLEPIAAINVAIPENYRMLNIALVDVGAGTSDISITRDGSIIAYGMIPHAGDELTEVIVQHFLVDFNMAESIKLQSTTSDTVTYKDIMSIEHTIPAQDVWDVAAPVVDNIAQEVSAKIRELNGDKTVSACFVVGGGGKIHGFTEKLAEDLDLPEERVALRGEEVLGDVTFEQEDIKKDPLLVTPIGICLNYYDQRNNFIMVRFNGERIKLYDNNRLTIVDAALQAGFPNDELFPKRGTPINFTVNGVARLVRGEAGEGAVVTMNGKPASINTPLEPNSEIIIEPSTAGEAAVYKISQLDEYNHSVITFIINGRRVSCPRFVQVNGELEPEDYSIRENDVIETRNYYTVRQIAQFMDLVIDTDQMIFVNNEEAGLDTLVYENFSVEWKTDEYGVARIDNNTYNDTQESDTDEASVLAEQDANSTESDNTVARTSEQMMNQVLDELHDDFAKEAEASAVPENELPENELPKNDIQEEIHEEDSSKNTVTVIVNGEPVELSGKDTYIFVDIFTHISFDLQAGKGRAIATVINGRDARFSEELHEGDKIELYWKEN”, for which the protein production result is recorded as “failed”.

With “MNPIPADVAAVVLAGGVGRRFGRPKALAMMDGISLVERAVEALSSGPADVYVSVSPALERPVARLVGSRRVIVDLVEQAPCEGPLRAFLTAASTLVSYSNLVFMPVDAPWASWRDLEPIYNASKAIGSGASYFSGEGIVHPLFLAARRKSLLTAAWTACWGRAEKRASAILRSLDPLILLGSSETRSPLALATVNTPQDLWRPSRVPAPAEGYILLEGHSILYKISSTMNSYYSALALEAEYKLYRRLGLLRLASHVLKDAAALNVSTSLIQQESMAGGLGLEHHHHHH”, the protein production entry is on record as “failed”.

Consider “MNPLARFLALAGFTVALASCQMFTPPEVQESGFQPSDRPITVDNVGANNKLAELAKAQHPRILATYGGEYSDPKLERMVAKVVGNLTVVSANPTQTYRITILNSPNVNAFALPGGYLYITRGLLALANDSSELAAVIAHEMGHVTANHGLQRQQLEAEEGLATKVVSDVLGDSPTAKAALIRGKLRLAQFSRNQELEADAIGIKSIGEAGYDPYAAGRFLQSMSAYTDFRSISGATDASLDFLATHPNTPQRIDLAQRHARQFGAPGVGTRDRDSFLAGIDGLLYGDTPEEGYVRGETFLHPGLGVSFTVPDGFIIDNSAAAVTATGPGDIAIRFDGVSIDKNRALTDYIRSGWVAGLDDSTVKQETINGNEAATAHAGAEGWQFDIAVIRAGGQVYRLLTAAPSASTSLETVARSVSGSFRVLSAAEKAALKPLHIRVLTVQPGQTMGSLAAQMVGVDRKLDLFRVLNALSPGAAVSAGDKVKIVTDK”, for which the protein production result is “failed”.

Consider “MNPSDRKDAVNPFGKLTFLVVDDFENFRLSMRQMLRSCGADKIELVAHATPAIQYCTYNHVDVVLCDYNLGEGKNGQHVLEELRHKKLLKRSSLFLMVTAETSKEMVMGAREYQPDGYLTKPINRAMLEQRLGSLIKQRNALLPITREIDRENYPEAISLCLQTLPKQPRYKTWLMKTLGELYFMVGDLAHAQKVYDDVLNQRELSWARLGRCKVLLANRNFDQAVDGLKALIEKHPDYMEAYDLLAEGLQKQGRSAQAQQVLEKAAEHSPNALLRQKHLAELAGANQDIDTASQAWRQTVSLGTYSIHDNAEHYLSLAQSLSDLSEGDLDEEGAARSSEALSVLTKMEKRFDNDETIGLKSRIVQCRLHAGQGRHREAEKILTAVSSELESLEELPADMGLDFAKTLFRMGREDQAKRILGDLASRFDNDPDTLQKIENLLDEPVGFRQKLEARSMNRDGIKAFEAGDLDAAVEAFNKALAIVPDHAALNLNLVQVLMKQYDQNPEPALLAACQQRLDHLNKLPEQHRQHRRYLALTRKLKGLTA”, for which the protein production entry is on record as “failed”.

Take “MNQAAQQSAPSRLRDRTLAAFTLMVSQPALAAIAALAALYALLAVVGGILTFSPVPFWDMWDGGLGFYVRQMTDVSQWWAQHNEHRIVLSRILFFLDYRYFDSNGAVLVVINYLLACSTFGLLAWCALQRDASRRRDGRMIAAFILCCALLWTQSNNLTWAFQSQFFLANLLPLLALVLLHASCRTRIRGNAIVFLAALTVAAMAAVSMANGVLAGGVVAAACLLGRQSWRRNLLAWAVAIAVPALYFHHYTAPAGHGSILASLRTEPLEVIKFFFAYIGSPFAHLDASGPLHLGWAILAGVVLLTAGAILAWRTIFKRHDTVDVDLVVTLFLGYLVASAFATAGSRALFGLDAAVASRYTTPGLLVLGCVLILASRNFFRDRALTMPYQIGLALMALAFLPSQLTATRPQPYLDFEWRFAALALELGVKDDKQIGWIFPDAAWAQKIAEPAANMGLGIFAKPGIYDAKLTLGGSYPTSSLQTCSLAGLENEAVDASTNDWIRLKGGLMNSILPRKISTVLLVDANNTIVGRGLLAEPKQDSPGAPFGAPFKAYLMGRAQPAVYKIVIPGFCTTTVAPKSQ”: the protein production entry was “failed”.
